Source: patent US20240002497A1 (Merck Sharp & Dohme, published 2024)
Changes are numbered by the printed parent chain. Names and notes keep the numbering of the source.

Tests used:
huNav1.7α + β1 [1] = biological target: huNav1.7α + β1 (human); assay: cell-based or functional assay
[2] = biological target: T1, huNav1.7α + β1 (human Nav1.7α co-expressed with Navβ1) (human, UniProt Q15858 1-1988; Q07699 19-218); assay: binding FACS, HEKa/β1 cells
T1 construct: also called HEK293 human Nav1.7α + β1; HEKa/β1 Nav1.7α

[3] = biological target: T2, huNav1.7α + β1-β2-β3 (human Nav1.7α co-expressed with Navβ1, Navβ2 and Navβ3) (human); assay: binding FACS, HEK FlpIn cells
T2 construct: also called huNav1.7-beta1-beta2-beta3

[4] = biological target: T3, huNav1.7α (human Nav1.7 alpha subunit, expressed without β subunits) (human, UniProt Q15858 1-1988); assay: binding FACS, HEKa cells
T3 construct: also called HEK293 human Nav1.7α; HEKa Nav1.7α

huNav157 chimera 14 = biological target: T4, huNav157 chimera 14 (human); assay: binding FACS, HEK FlpIn cells
T4 construct: Chimera without β subunits; also called Nav157ch14

[5] = biological target: T5, huNav157 chimera 14 + β1-β2-β3 (human); assay: binding FACS, HEK FlpIn cells
T5 construct: Chimera of huNav1.7α (extracellular loops and transmembrane helices) and huNav1.5α (intracellular loops); also called Nav157ch14-β1-β2-β3; huNav157 chimera 14-beta1-beta2-beta3

huNav1.7α [6] = biological target: T6, huNav1.7α (human, UniProt Q15858 1-1988); assay: binding FACS, HEK
T6 construct: HEK cells expressing the α subunit without β subunits; also called huNav1.7 (alpha-subunit); Human Nav1.7α

huNav1.7α + β1 [7] = biological target: T7, huNav1.7α + β1 (human); assay: binding FACS, HEK
T7 construct: HEK293 cells; also called huNav1.7-beta1; huNav1.7-β1

huNav1.7α + β1 [8] = biological target: T7, huNav1.7α + β1; assay: cell-based or functional assay; remark: listed apart in the source
rhNav1.7α + β1-β2-β3 = biological target: T8, rhNav1.7α + β1-β2-β3 (rhesus monkey); assay: competition FACS vs EC40 of F103275B05(N93R), CHO FlpIn
T8 construct: also called rhNav1.7-beta1-beta2-beta3; rhNav1.7-β1-β2-β3

huNav1.7α + β1-β2-β3 [9] = biological target: T9, huNav1.7α + β1-β2-β3 (human, UniProt Q15858 1-1988; A5A6L6 19-218; O60939 30-215; Q2KI11 23-215); assay: competition FACS vs EC25 of F103275B05(N93R), CHO FlpIn
T9 construct: also called huNav1.7-beta1-beta2-beta3; huNav1.7-β1-β2-β3

huNav1.7α [10] = biological target: T6, huNav1.7α; assay: competition FACS vs EC25 of F103275B05(N93R), HEK
huNav1.7α + β1 [11] = biological target: T7, huNav1.7α + β1; assay: competition FACS vs EC25 of F103275B05(N93R), HEK
huNav1.7α + β1-β2-β3 [12] = biological target: T9, huNav1.7α + β1-β2-β3; assay: cell-based or functional assay
huNav1.7α [13] = biological target: T6, huNav1.7α; assay: cell-based or functional assay
huNav1.7α + β1-β2-β3 [14] = biological target: T9, huNav1.7α + β1-β2-β3; assay: competition FACS vs EC25 of F103275B05(N93R), HEK FlpIn
[15] = biological target: T10, muNav1.7α (murine Nav1.7α) (murine, UniProt Q62205 1-1984); assay: binding FACS; minus = lower activity than reference
T10 construct: HEK Jmp-In cells

B1: F010302391 (VHH)
VHH: EVQLVESGGGVVQPGGSLRLSCAASGRILRIGYMRWYRQAPGKQREFVARITGGSATGYADSVKGRFTISRDNAKNTVYLQMNSLRPEDTALYYCEALVTASVRGGSIHSGTYWGQGTLVTVSS
Qpatch IC50 (huNav1.7α + β1 [1]): 32 nM

B2: F010301563 (VHH)
VHH: EVQLVESGGGLVQAGGSLRLSCAASGRILRIGYMRWHRQGAGKQREFVARITDDSATGYADSVKGRFTISRDNAKNTVYLQMNNLNPEDTAVYYCEALVTASVRGGSIHSGTYWGRGTLVTVSS
Qpatch IC50 (huNav1.7α + β1 [1]): 5 nM

B3: F010301566 (VHH)
VHH: B2 VHH with A23D, D54G
Qpatch IC50 (huNav1.7α + β1 [1]): 18 nM

B4: F010302309 (VHH)
VHH: B1 VHH with G53D, G54D, N73Q
notes: also called F0103387G05(L11V, A14P, D23A, H37Y, G40A, A41P, D58G, N73Q, N82bS, N83R, V89L, R105Q)
EC50 [2]: 1.5 nM | EC50 [3]: 2.3 nM | Bmax [4]: 100% | EC50 [4]: 2.2 nM

B5: F010302307 (VHH)
VHH: B1 VHH with G53D, G54D, N73A
notes: also called F0103387G05(L11V, A14P, D23A, H37Y, G40A, A41P, D58G, N73A, N82bS, N83R, V89L, R105Q)
EC50 [2]: 1.9 nM | EC50 [3]: 2.9 nM | Bmax [4]: 100% | EC50 [4]: 2.8 nM

B6: F010302308 (VHH)
VHH: B1 VHH with G53D, G54D, N73Y
notes: also called F0103387G05(L11V, A14P, D23A, H37Y, G40A, A41P, D58G, N73Y, N82bS, N83R, V89L, R105Q)
EC50 [2]: 1.3 nM | EC50 [3]: 2 nM | Bmax [4]: 100% | EC50 [4]: 1.8 nM

B7: F010301850 (VHH)
VHH: B1 VHH with G53D, G54D
notes: also called F0103387G05(L11V, A14P, D23A, H37Y, G40A, A41P, D58G, N82bS, N83R, V89L, R105Q)
EC50 [2]: 1.8 nM | EC50 (huNav157 chimera 14): 5.4 nM | EC50 [3]: 1.9 nM | EC50 [5]: 3 nM | Bmax [4]: 100% | EC50 [4]: 2.8 nM

B8: 65ASP (Fc fusion)
chain: EVQLVESGGGLVQPGGSLRLSCAASGSIFNINSMAWYRRAPGKQRELVASSTNGGSTNYADSVKGRFTISRDNAKRVYLQMNSLTPEDTAVYYCNALLQPSIYDISRTYWGQGTLVTVSS
notes: also called F0103275B05-5GS-Fc; not shown: 5GS linker; Fc moiety
EC50 (huNav1.7α [6]): 21 nM | EC50 (huNav1.7α + β1 [7]): 45 nM | Qpatch IC50 [M], HEK cells (huNav1.7α + β1 [8]): 1.2e-07 M

B9: F010300468 (VHH)
VHH: B8 chain with N95R
notes: also called F0103275B05(N93R) + FLAG3-HIS6; F103275B05(N93R) + FLAG3-HIS6
IC50 (rhNav1.7α + β1-β2-β3): 77 nM | IC50 (huNav1.7α + β1-β2-β3 [9]): 130 nM | IC50 (huNav1.7α [10]): 49 nM | IC50 (huNav1.7α + β1 [11]): 67 nM | Qpatch IC50 (huNav1.7α + β1-β2-β3 [12]): 99 nM | Qpatch IC50 (huNav1.7α [13]): 57 nM | IC50 (huNav1.7α + β1-β2-β3 [14]): 97 nM

B10: F010301871 (VHH)
VHH: EVQLVESGGGVVQPGGSLRLSCAATSRAFIRDVFTGWYRRVPGKERELVARIYNGGNTNYADFAKGRFTISRDNAKKMVYLQMNSLRPEDTALYYCLFSGTINTGREYRSGDYWGQGTLVTVSS
notes: also called F0103464B09(L11V, T24A, S68T, T79Y, R81Q, S82aN, N82bS, K83R, G88A, V89L); T24A
EC50 fold change compared to reference [15]: -2 fold

B11: F010301872 (VHH)
VHH: B10 VHH with A24T, T25S
notes: also called F0103464B09(L11V, T25S, S68T, T79Y, R81Q, S82aN, N82bS, K83R, G88A, V89L); T25S
EC50 fold change compared to reference [15]: -2 fold

B12: F010301876 (VHH)
VHH: B10 VHH with A24T, A64V
notes: also called F0103464B09(L11V, A63V, S68T, T79Y, R81Q, S82aN, N82bS, K83R, G88A, V89L); A63V
EC50 fold change compared to reference [15]: -2 fold

B13: F010301873 (VHH)
VHH: B10 VHH with A24T, R40Q
notes: also called F0103464B09(L11V, R39Q, S68T, T79Y, R81Q, S82aN, N82bS, K83R, G88A, V89L); R39Q
EC50 fold change compared to reference [15]: -4 fold
